Results on seven molecules are retold here after patent US20250051443A1 (NATIONAL RESEARCH COUNCIL OF CANADA, published 2025).

Changes are numbered by the printed parent chain. Read-outs that look alike come from different tables or passages of the source.

For experiment [1], the target named is T1, human CD3 (human, UniProt P07766 23-207; P09693 23-182; P04234 22-171). The experiment can be described thus: flow competition on Jurkat, 100 nM unlabeled mAb; competitor AF488-SP34.2 20 nM. The method, then:
(§1) In order to evaluate whether anti-CD3 monoclonal antibodies bind to the same epitope region, flow cytometry competition experiments on Jurkat cells were performed.
(§2) To that effect, a fixed concentration of the indicated AF488-labeled mAb were incubated with 100 nM of unlabeled monoclonal antibodies to assess if their binding capacity was impaired in presence of unlabeled mAbs. […] The AF488-OKT3 mIgG2b was labeled in-house using AlexaFluor488 protein labelling kit (Invitrogen #A10235) following manufacturer's instruction. The free dye removal step was done using Zeba™ Spin Desalting Columns, 7K MWCO (Thermo Scientific #89890). The final product was analyzed by UPLC-SEC to ensure the integrity of the labeled mAb.

Experiment [2] deals with T1, human CD3. Description: flow competition on Jurkat, 100 nM unlabeled mAb; competitor AF488-SK7 1.5 nM. The method, then: as §1, §2
Experiment [3] addresses T1, human CD3. Description: flow competition on Jurkat, 100 nM unlabeled mAb; competitor AF488-UCHT1 5 nM (self).
Experiment [4] addresses T1, human CD3. Description: flow cytometry, AF488-labeled mAb on CD3+ Jurkat cells. Background: In flow cytometry, cells or beads pass a laser one at a time.
Experiment [5] addresses T1, human CD3. The experiment can be described thus: flow competition on Jurkat, 100 nM unlabeled mAb; competitor AF488-UCHT1 5 nM. The method, then: as §1, §2
The target of experiment [6] is T1, human CD3. The experiment can be described thus: flow competition on Jurkat, 100 nM unlabeled mAb; competitor AF488-SK7 1.5 nM (self).
Experiment [7] concerns the target T1, human CD3. Description: flow competition on Jurkat, 100 nM unlabeled mAb; competitor AF488-OKT-3 mIgG2b 1.5 nM (self).
Experiment [8] addresses T1, human CD3. Description: apparent KD (KDapp), flow cytometry titration on purified primary human T cells. The method, then: The binding characteristics of the purified anti-CD3 mAbs were assessed in titration studies on purified human primary T cells from different donor samples. Fresh ex vivo peripheral blood mononuclear cells (PBMCs) were obtained via density centrifugation over Ficoll-Paque using standard procedures and untouched T cell fractions obtained from PBMCs by negative pan-T cell selection and magnetic cell sorting. Starting from 300 nM concentrations of the anti-CD3 mAbs, eight point binding curves were generated from the resultant mean fluorescence intensity (MFI) values obtained through detection of labelled secondary antibody to bound CD3 in flow cytometry experiments (FIGS. 3A and 3B). Both commercial mouse anti-human CD3 mAb (OKT-3; Biolegend) and an in house generated IgG1 version of OKT-3 were employed as positive controls together with a non-specific mouse IgG serving as a negative binding control. Following curve fit analysis using one-site specific binding with Hill slope, the KDapp (concentration needed to achieve a half-maximum binding at equilibrium) for each mAb was calculated (Table 2).
Eight point binding titrations were performed with the anti-CD3 mAbs starting at either 300 or 100 nM on freshly purified human T cells obtained through negative selection from PBMC fractions. Briefly, 1×10⁵ human T cells (50 μL of staining buffer (SB; PBS/1% BSA/0.01% NaN3) were incubated with graded dilutions of the anti-CD3 mAbs in SB ([…]) for 2 hours at 4° C. in 96 w U-bottom plates, followed by plate washing with SB ([…]). Cell pellets were resuspended with 25 μL of a 0.25 mg/mL solution of the goat (Fab′)₂ anti-mouse IgG (H+L)− APC secondary antibody in SB, incubated at 4° C. (30 min.), washed 1× with SB, and resuspended for flow analysis. Recombinant anti-human OKT-3 IgG2b (in house produced) and non-specific mIgG were employed similarly as positive and negative controls respectively. 10K live events were acquired on a BD LSRFortessa flow analyzer and mean fluorescence intensities (MFI) calculated after subtraction of secondary antibody alone values. Using GraphPad Prism software, the data were analyzed using a one site specific binding with Hill slope non-linear regression model to calculate KDapp and BMax values (See Table 2).

The target of experiment [9] is T1, human CD3. The experiment can be described thus: apparent KD (KDapp), flow cytometry titration on Jurkat cells. The method, then:
Unless otherwise stated, all media are kept are 4° C. and all incubations are performed on wet ice. Exponentially growing Jurkat cells were centrifuged and resuspended in complete medium at a cell density of 2×10⁶ cells/mL. Fifty μL/well of cells were distributed in a polypropylene v-bottom 96 well plate and serial 1/3 dilutions of purified mAbs starting at 300 nM were added and incubated for 2 hours. Cells were washed twice by centrifugation and further incubated with a FITC labeled F(ab′)2 goat anti-mouse antibody (Fc specific, #115-096-071, Jackson Immunoresearch, Cedarlane, Burlington, ON) for an hour. Cells were washed and re-suspended in medium containing Propidium iodide to exclude dead cells from analysis. Samples were filtered through a 60 μm nylon mesh filter plate (Millipore, Ireland) to remove cell aggregates. Flow cytometry analyses were performed on 2,000 viable single-cells events gated on forward scattering, side scattering parameters and propidium iodide dye exclusion using a BD-LSRFortessa flow cytometer (Becton-Dickinson Biosciences, CA, USA) and a standard filter set using BD FACSDiva™ acquisition software, according to manufacturer's instructions.

The target of experiment [10] is T1, human CD3. Description: cell-based or functional assay.
Experiment [11] concerns the target T1, human CD3. The experiment can be described thus: cell-based or functional assay. This is another data set of the same source.
Experiment [12] has as its target T1, human CD3. Description: flow competition on Jurkat, 100 nM unlabeled mAb; competitor AF488-OKT-3 mIgG2b 1.5 nM. The method, then: as §1, §2
Experiment [13] has as its target T1, human CD3. The experiment can be described thus: flow cytometry, hybridoma supernatant on CD3+ Jurkat cells. The method, then:
Cells were stained with either negative control mouse IgG (Jackson Immunoresearch cat #115-000-003) or an anti-GFP 3E6 mAb supernatant or tested hybridoma supernatant. Specific binding was reflected by the increase in the mean fluorescent intensity of antibody binding to Jurkat T-cells (FIGS. 1A to 1F, grey histograms) compared to the Jurkat CD3 negative cell line J.RT3-T3.5 (FIGS. 1A to 1F, open histograms). AF488 labeled positive control mAb OKT3 was also analyzed.

The target of a further experiment is T2, Cynomolgus CD3 (Cynomolgus, UniProt Q95LI5 22-198; Q95LI7 23-181; Q95LI8 22-171).
T2 construct: whole, on cells; also called CD3 on Cynomolgus PBMCs; CD3 on HSC-F Cynomolgus T cell line
Description: apparent KD (KDapp), flow cytometry titration on cynomolgus HSC-F T cell line. The method, then: To characterize potential cross-reactivity of the anti-human CD3 mAbs to NHP T cells, dose response flow cytometry titration studies were performed on both freshly obtained Cynomolgus PBMCs (Comparative Medicine and Animal Resources Centre—McGill University) or the Cynomolgus derived T cell line, HSC-F (Non-Human Primate Reagent Resource—NIH). Binding studies on fresh Cynomolgus PBMCs was performed on a subset of anti-CD3 mAbs (FIG. 4) whereas the Herpesvirus saimiri immortalized Cynomolgus T cell line HSC-F was employed for further evaluations (FIGS. 5A to 5C). KDapp values were calculated using a non-linear regression model of one-site binding with Hill slope (GraphPad Prism) and tabulated (Table 3b). Similar KDapp values for anti-CD3 mAb 1E2 obtained from binding to fresh Cynomolgus PBMCs (KDapp=0.28 nM) or the HSC-F T cell line (KDapp=0.39 nM) indicated the HSC-F cell line was a suitable surrogate for ex vivo NHP T cells.
HSC-F T cells obtained from the Non-Human Primate Reagent Resource (NIH) were maintained in culture in RPMI media containing 20% FBS and 40 IU/mL recombinant human IL2. 100K HSC-F cells in logarithmic cell growth were treated with graded doses of the anti-CD3 mAbs starting at 100 nM in staining buffer (SB; PBS/1% BSA/0.01% NaN3) for 2 hours at 4° C. in 96 w V-bottom plates. Following plate washing with SB, the cell pellets were resuspended with 25 μL of goat (Fab′)₂ anti-mouse IgG (H+L)− APC secondary antibody (final 5 μg/mL), incubated for 30 minutes at 4° C., followed by flow cytometry analysis. The commercial NHP cross-reactive SP34.2 anti-CD3 mAb (BD Biosciences), recombinant anti-human OKT-3 IgG2b (in house produced) and non-specific mIgG were employed as controls. 20K live events were acquired on a BD LSRFortessa flow analyzer and mean fluorescence intensities (MFI) calculated after subtraction of secondary antibody alone values. Using GraphPad Prism software, the data were analyzed using a one site specific binding with Hill slope non-linear regression model to calculate KDapp and BMax values (See Table 2).

Regarding UCHT1 (antibody), the % residual fluorescence of labeled mAb in the experiment with human CD3 [1] came to 54%; with human CD3 [2], 7%; with human CD3 [3], 8%. In the experiment with human CD3 [4], this molecule registered an MFI of 293 MFI.
Turning to SK7 (antibody), the % residual fluorescence of labeled mAb with human CD3 [1] amounted to 58%; with human CD3 [5], 14%; in the experiment with human CD3 [6], 9%. In the experiment with human CD3 [4], the MFI turned out to be 311 MFI.
Turning to OKT-3 AF488 (antibody), the MFI with human CD3 [4] is 265 MFI.
Consider “recombinant mouse IgG2b OKT-3 produced in-house (antibody)”, for which the % residual fluorescence of labeled mAb in the experiment with human CD3 [1] came out at 26%; with human CD3 [7] it was 8%; with human CD3 [5], 11%; with human CD3 [2] it was 6%. The Kd with human CD3 [8] was 0.03 nM; with human CD3 [9], 0.13 to 0.23 nM. In the experiment with human CD3 [10], this molecule came in with a % max ref. OKT3 (dTomato activation) of 105%. In the experiment with human CD3 [10], this molecule yielded an EC50 of dTomato induction (CD69 promoter), Jurkat-CD69-dTomato cells, 24 h of 0.17 µg/mL. In the experiment with human CD3 [10], the IC50, indirect ADC surrogate growth inhibition (anti-mouse-DM1) on Jurkat cells came out at 0.057 nM. The Span, indirect ADC surrogate growth inhibition on Jurkat cells in the experiment with human CD3 [10] is 91%.

B1: F332-5D4 (antibody, mouse IgG2b, V domains shown)
VH: QVQLQQPGAELGKPGTSVKLSCKASGYTFTSYWMHWVKQRPGQGLEWIGNINPNGGDSNYNEKFKSKATLTVDMSSSTAYMQLSTLTSEDSAVYYCTRDISGQYYFDFWGQGTSLTVFS
VL: DILMSQSPSSLAVSAGEQVTMSCKSSQSLLNSRTRKNYLAWYQQKPGQSPKLLIFWASTRKSGVPDRFTGSGSGTYFTLTINSVQTEDLAVYYCTQSYSLRTFGGGTKLEIK
notes: also called F332-5D4-2; F332-5D4 (5F8)
Turning to B1, the “% residual fluorescence of labeled mAb” value was 10% with human CD3 [1], 73% in the experiment with human CD3 [5], 49% in the experiment with human CD3 [2] and 93% with human CD3 [12]. Also, in the experiment with human CD3 [11], the “% max ref. OKT3 (dTomato activation)” value worked out at 109%. For the same molecule, the “EC50 of dTomato induction (CD69 promoter), Jurkat-CD69-dTomato cells, 24 h” value (shortened to “EC50 of dTomato induction”) with human CD3 [11] stood at 0.27 µg/mL. For the same molecule, the values for the Kd in the experiment with human CD3 [8], with human CD3 [9] and with Cynomolgus CD3 were 0.61 nM, 0.7 nM and 0.64 nM, respectively. The MFI with human CD3 [13] came to 326 MFI.

B2: F332-13B4 (antibody, mouse IgG2a, V domains shown)
VH: QVQLQQSGPELVKPGASVKISCKASGYSFTNSYVHWVKQTPGQGLEWIGWIYPGSTNIKYNEKFKGKATLTADTSSSTVYMQLSSLTSEDSAVYFCARDGSYFFDYWGQGTTLTVSS
VL: B1 VL with L3V, Q18K, S22T, F55Y, K61E, Y76D, N82S, T86A, T95K, S99I
notes: also called F332-13B4-2
In the case of B2, the “% residual fluorescence of labeled mAb” value with human CD3 [1] came out at 8%; in the experiment with human CD3 [5], 72%; in the experiment with human CD3 [2], 43%; in the experiment with human CD3 [12], 79%. Besides, the “% max ref. OKT3 (dTomato activation)” value with human CD3 [11] worked out at 90%. Also, in the experiment with human CD3 [11], the “EC50 of dTomato induction” value was determined as 0.47 µg/mL. Besides, the Kd with human CD3 [8] was found to be 0.05 nM; with human CD3 [9] it was 0.6 nM; with Cynomolgus CD3, 0.64 nM. For the same molecule, the MFI in the experiment with human CD3 [13] amounted to 373 MFI.

B3: F332-10B6 (antibody, mouse IgG2a, V domains shown)
VH: QVQLQQPGAELGKPGTSVNLSCKASGYTFTDYWIHWVKQRPGQGLEWIGNINPNSGDTNYNENFKTKATLTVDRSSSTAYMQLSSLTSEDSAVYYCTRDISGQYYFDFWGQGTTLTVSS
VL: B1 VL with L3V, Q18K, F55Y, K61E, Y76D, N82S, T86A, T95I, S99N
notes: also called F332-10B6-2; F332-12B5-1
As to B3, the “% residual fluorescence of labeled mAb” value with human CD3 [1] amounted to 32%; with human CD3 [5], 80%; with human CD3 [2] it was 56%; with human CD3 [12], 94%. In the experiment with human CD3 [11], the “% max ref. OKT3 (dTomato activation)” value is 60%. Further, the “EC50 of dTomato induction” value in the experiment with human CD3 [11] stood at 0.23 µg/mL. The Kd with human CD3 [8] was 30.1 nM; with human CD3 [9] it was 3.7 nM; with Cynomolgus CD3, 2 nM. Moreover, in the experiment with human CD3 [13], the MFI came out at 143 MFI.
